Experimental data reported in publication PMC9409550 (PLoS ONE, 2022).

Legend:
Assay in all cases: flow cytometry on cells
Conditions in all cases: one partner purified
[1] = target: SARS-CoV-2 Wuhan-Hu-1 RBD, yeast-displayed (SARS-CoV-2, UniProt P0DTC2 330-530)
[2] = target: LYRa11 RBD, yeast-displayed (bat sarbecovirus LYRa11)
[3] = target: Rs4048 RBD, yeast-displayed (bat sarbecovirus Rs4048)
[4] = target: Rs4231 RBD, yeast-displayed (bat sarbecovirus Rs4231)
[5] = target: Rs7327 RBD, yeast-displayed (bat sarbecovirus Rs7327)
[6] = target: RsSHC014 RBD, yeast-displayed (bat sarbecovirus RsSHC014, UniProt U5WLK5 318-517)
[7] = target: RaTG13 RBD, yeast-displayed (bat sarbecovirus RaTG13)
[8] = target: SARS-CoV-1 (Urbani) RBD, yeast-displayed (SARS-CoV-1 (Urbani))

B1: CDY14HL-Fc1 (Fc fusion)
chain: QSTIEEQAKTFLDMFNHKAEDLFYQSSLAAWNYNTNITEENVQNMNNAGDKWSAFLKEQSTFAQMYPLQEIQNPTVKLQLQALQQNGSSVLSEDKSKRLNTILNTMSTIYSTGKVCNPDNPQECLLLEPGLNEIMANSLDYNERLWAWESWRSEVGKQLRPLYEEYVVLKNEMARANHYEDYGDYWRGDYEVNGVDGYDYSRGQLIEDVEHTFEEIKPLYEHLHAYVRAKLMNAYPSYISPIGCLPAHLLGDMWGRFWTNLYSLTVPFGQKPNIDVTDAMVDQAWDAQRIFKEAEKFFVSVGLPNMTQGFWEYSMLTDPGNVQKAVCLPTAWDLGKGDFRILMCTKVTMDDFLTAHHEMGHIQYDMAYAAQPFLLRNGANEGFHEAVGEIMSLSAATPKHLKSIGLLSPDFQEDNETEINFLLKQALTIVGTLPFTYMLEKWRWMVFKGEIPKDQWMKKWWEMKREIVGVVEPVPHDETYCDPASLFHVSNDYSFIRYYTRTLYQFQFQEALCQAAKHEGPLHKCDISNSTEAGQKLFNMLRLGKSEPWTLALENVVGAKNMNVRPLLNYFEPLFTWLKDQNKNSFVGWSTDWSPYAD
[1]
  Kd: 0.14 nM
[2]
  Kd: 0.29 nM
[3]
  Kd: 0.31 nM
[4]
  Kd: 0.3 nM
[5]
  Kd: 0.31 nM
[6]
  Kd: 0.31 nM
[7]
  Kd: 1.4 nM
[8]
  Kd: 0.25 nM
